B1: WSB1 (parent)
chain: DLKDDGNMMKVLRGHQNWVYSCAF
B2: ZNF193 (parent)
chain: QCIECGKSFNRHCNLIRHQKIHTV

Variants of: B1
Assay: protein stability index of a GFP-peptide fusion (GPS, HEK-293T) (PSI 1-6); higher = more stable
Details: c terminus: a fixed tail appended
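Also: lentivirally expressed fusions sorted by FACS into six bins by GFP to DsRed ratio, PSI derived from sequencing read proportions per bin multiplied by bin number.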

**Q.** For LLKDDGNMMKVLRGHQNWVYSCAF [D1L], which protein stability index is on record?
**A.** 2.52

**Q.** Which protein stability index does the source give for VLKDDGNMMKVLRGHQNWVYSCAF [D1V] here?
**A.** 1.89

**Q.** Which protein stability index does the source give for ELKDDGNMMKVLRGHQNWVYSCAF [D1E] here?
**A.** 2.24

**Q.** With PLKDDGNMMKVLRGHQNWVYSCAF [D1P] as the variant, how does the protein stability index read?
**A.** 1.59

**Q.** For NLKDDGNMMKVLRGHQNWVYSCAF [D1N], which protein stability index is on record?
**A.** 2.02

**Q.** With GLKDDGNMMKVLRGHQNWVYSCAF [D1G] as the variant, how does the protein stability index read?
**A.** 1.76

**Q.** Which protein stability index does the source give for TLKDDGNMMKVLRGHQNWVYSCAF [D1T] here?
**A.** 2.3

**Q.** For RLKDDGNMMKVLRGHQNWVYSCAF [D1R], which protein stability index is on record?
**A.** 1

**Q.** With HLKDDGNMMKVLRGHQNWVYSCAF [D1H] as the variant, how does the protein stability index read?
**A.** 1.78

**Q.** With QLKDDGNMMKVLRGHQNWVYSCAF [D1Q] as the variant, how does the protein stability index read?
**A.** 1.38

**Q.** Which protein stability index does the source give for FLKDDGNMMKVLRGHQNWVYSCAF [D1F] here?
**A.** 2.47

**Q.** Which protein stability index does the source give for ALKDDGNMMKVLRGHQNWVYSCAF [D1A] here?
**A.** 1.62

**Q.** For KLKDDGNMMKVLRGHQNWVYSCAF [D1K], which protein stability index is on record?
**A.** 2.65

**Q.** With MLKDDGNMMKVLRGHQNWVYSCAF [D1M] as the variant, how does the protein stability index read?
**A.** 2.04

Variants of: B2
Assay: as above
Details: c terminus: a fixed tail appended

**Q.** For QCIECGKSFNRHCNLIRGQKIHTV [H18G], which protein stability index is on record?
**A.** 2.91

**Q.** Which protein stability index does the source give for QCIECGKSFNRHCNLIRVQKIHTV [H18V] here?
**A.** 1.45

**Q.** With QCIECGKSFNRHCNLIRFQKIHTV [H18F] as the variant, how does the protein stability index read?
**A.** 2.4

**Q.** With QCIECGKSFNRHCNLIRDQKIHTV [H18D] as the variant, how does the protein stability index read?
**A.** 1.97

**Q.** Which protein stability index does the source give for QCIECGKSFNRHCNLIRPQKIHTV [H18P] here?
**A.** 2.05

**Q.** For QCIECGKSFNRHCNLIRAQKIHTV [H18A], which protein stability index is on record?
**A.** 2.45

**Q.** With QCIECGKSFNRHCNLIRKQKIHTV [H18K] as the variant, how does the protein stability index read?
**A.** 2.38

**Q.** With QCIECGKSFNRHCNLIRTQKIHTV [H18T] as the variant, how does the protein stability index read?
**A.** 1.66

**Q.** With QCIECGKSFNRHCNLIRMQKIHTV [H18M] as the variant, how does the protein stability index read?
**A.** 1.65

**Q.** With QCIECGKSFNRHCNLIRQQKIHTV [H18Q] as the variant, how does the protein stability index read?
**A.** 2.24

**Q.** With QCIECGKSFNRHCNLIRSQKIHTV [H18S] as the variant, how does the protein stability index read?
**A.** 2.36

**Q.** For QCIECGKSFNRHCNLIRLQKIHTV [H18L], which protein stability index is on record?
**A.** 1.71

**Q.** With QCIECGKSFNRHCNLIRYQKIHTV [H18Y] as the variant, how does the protein stability index read?
**A.** 1.41

**Q.** With QCIECGKSFNRHCNLIREQKIHTV [H18E] as the variant, how does the protein stability index read?
**A.** 2.33

**Q.** With QCIECGKSFNRHCNLIRRQKIHTV [H18R] as the variant, how does the protein stability index read?
**A.** 1.87

**Q.** Which protein stability index does the source give for QCIECGKSFNRHCNLIRWQKIHTV [H18W] here?
**A.** 2.21

**Q.** Which protein stability index does the source give for QCIECGKSFNRHCNLIRNQKIHTV [H18N] here?
**A.** 2.31

**Q.** For QCIECGKSFNRHCNLIRCQKIHTV [H18C], which protein stability index is on record?
**A.** 2.55

**Q.** With QCIECGKSFNRHCNLIRIQKIHTV [H18I] as the variant, how does the protein stability index read?
**A.** 2

**Q.** Which protein stability index does the source give for QCIECGKSFNRHCNLIRHQKIHTY [V24Y] here?
**A.** 3.4

**Q.** Which protein stability index does the source give for QCIECGKSFNRHCNLIRHQKIHTS [V24S] here?
**A.** 4.21

**Q.** Which protein stability index does the source give for QCIECGKSFNRHCNLIRHQKIHTM [V24M] here?
**A.** 4.19

**Q.** For QCIECGKSFNRHCNLIRHQKIHTE [V24E], which protein stability index is on record?
**A.** 4.36

**Q.** Which protein stability index does the source give for QCIECGKSFNRHCNLIRHQKIHTC [V24C] here?
**A.** 3.99

**Q.** For QCIECGKSFNRHCNLIRHQKIHTH [V24H], which protein stability index is on record?
**A.** 3.83

**Q.** With QCIECGKSFNRHCNLIRHQKIHTF [V24F] as the variant, how does the protein stability index read?
**A.** 3.41

**Q.** Which protein stability index does the source give for QCIECGKSFNRHCNLIRHQKIHTD [V24D] here?
**A.** 3.83

**Q.** With QCIECGKSFNRHCNLIRHQKIHTK [V24K] as the variant, how does the protein stability index read?
**A.** 4.68

**Q.** Which protein stability index does the source give for QCIECGKSFNRHCNLIRHQKIHTN [V24N] here?
**A.** 4.22

**Q.** With QCIECGKSFNRHCNLIRHQKIHTW [V24W] as the variant, how does the protein stability index read?
**A.** 2.75

**Q.** For QCIECGKSFNRHCNLIRHQKIHTT [V24T], which protein stability index is on record?
**A.** 3.84

**Q.** For QCIECGKSFNRHCNLIRHQKIHTR [V24R], which protein stability index is on record?
**A.** 3.83

**Q.** Which protein stability index does the source give for QCIECGKSFNRHCNLIRHQKIHTG [V24G] here?
**A.** 3.56

**Q.** For QCIECGKSFNRHCNLIRHQKIHTA [V24A], which protein stability index is on record?
**A.** 4.26

**Q.** For QCIECGKSFNRHCNLIRHQKIHTL [V24L], which protein stability index is on record?
**A.** 3.43

**Q.** For QCIECGKSFNRHCNLIRHQKIHTI [V24I], which protein stability index is on record?
**A.** 2.8

**Q.** With QCIECGKSFNRHCNLIRHQKIHTP [V24P] as the variant, how does the protein stability index read?
**A.** 4.21

**Q.** With QCIECGKSFNRHCNLIRHQKIHTQ [V24Q] as the variant, how does the protein stability index read?
**A.** 3.87

**Q.** With QCIECGKSFNRHCNLIRHQKIHCV [T23C] as the variant, how does the protein stability index read?
**A.** 3.58

**Q.** With QCIECGKSFNRHCNLIRHQKIHYV [T23Y] as the variant, how does the protein stability index read?
**A.** 3.31

**Q.** For QCIECGKSFNRHCNLIRHQKIHRV [T23R], which protein stability index is on record?
**A.** 3.91

**Q.** For QCIECGKSFNRHCNLIRHQKIHKV [T23K], which protein stability index is on record?
**A.** 3.47

**Q.** For QCIECGKSFNRHCNLIRHQKIHMV [T23M], which protein stability index is on record?
**A.** 3.33

**Q.** Which protein stability index does the source give for QCIECGKSFNRHCNLIRHQKIHNV [T23N] here?
**A.** 4.08

**Q.** Which protein stability index does the source give for QCIECGKSFNRHCNLIRHQKIHPV [T23P] here?
**A.** 3.23

**Q.** Which protein stability index does the source give for QCIECGKSFNRHCNLIRHQKIHLV [T23L] here?
**A.** 2.7

**Q.** Which protein stability index does the source give for QCIECGKSFNRHCNLIRHQKIHIV [T23I] here?
**A.** 2.6

**Q.** Which protein stability index does the source give for QCIECGKSFNRHCNLIRHQKIHQV [T23Q] here?
**A.** 4.09

**Q.** For QCIECGKSFNRHCNLIRHQKIHWV [T23W], which protein stability index is on record?
**A.** 2.56

**Q.** For QCIECGKSFNRHCNLIRHQKIHFV [T23F], which protein stability index is on record?
**A.** 2.85

**Q.** Which protein stability index does the source give for QCIECGKSFNRHCNLIRHQKIHGV [T23G] here?
**A.** 3.31

**Q.** With QCIECGKSFNRHCNLIRHQKIHVV [T23V] as the variant, how does the protein stability index read?
**A.** 3.26

**Q.** With QCIECGKSFNRHCNLIRHQKIHSV [T23S] as the variant, how does the protein stability index read?
**A.** 3.68

**Q.** Which protein stability index does the source give for QCIECGKSFNRHCNLIRHQKIHHV [T23H] here?
**A.** 3.9

**Q.** For QCIECGKSFNRHCNLIRHQKIHEV [T23E], which protein stability index is on record?
**A.** 4.38

**Q.** For QCIECGKSFNRHCNLIRHQKIHDV [T23D], which protein stability index is on record?
**A.** 3.13

**Q.** Which protein stability index does the source give for QCIECGKSFNRHCNLIRHQKHHTV [I21H] here?
**A.** 3.77

**Q.** For QCIECGKSFNRHCNLIRHQKGHTV [I21G], which protein stability index is on record?
**A.** 3.51

**Q.** For QCIECGKSFNRHCNLIRHQKYHTV [I21Y], which protein stability index is on record?
**A.** 3.6

**Q.** Which protein stability index does the source give for QCIECGKSFNRHCNLIRHQKSHTV [I21S] here?
**A.** 4

**Q.** For QCIECGKSFNRHCNLIRHQKEHTV [I21E], which protein stability index is on record?
**A.** 4.1

**Q.** For QCIECGKSFNRHCNLIRHQKKHTV [I21K], which protein stability index is on record?
**A.** 4.25

**Q.** With QCIECGKSFNRHCNLIRHQKFHTV [I21F] as the variant, how does the protein stability index read?
**A.** 3.15

**Q.** With QCIECGKSFNRHCNLIRHQKWHTV [I21W] as the variant, how does the protein stability index read?
**A.** 3.55

**Q.** Which protein stability index does the source give for QCIECGKSFNRHCNLIRHQKMHTV [I21M] here?
**A.** 3.72

**Q.** Which protein stability index does the source give for QCIECGKSFNRHCNLIRHQKVHTV [I21V] here?
**A.** 3.74

**Q.** With QCIECGKSFNRHCNLIRHQKNHTV [I21N] as the variant, how does the protein stability index read?
**A.** 3.52

**Q.** With QCIECGKSFNRHCNLIRHQKPHTV [I21P] as the variant, how does the protein stability index read?
**A.** 3.1

**Q.** With QCIECGKSFNRHCNLIRHQKAHTV [I21A] as the variant, how does the protein stability index read?
**A.** 4

**Q.** With QCIECGKSFNRHCNLIRHQKLHTV [I21L] as the variant, how does the protein stability index read?
**A.** 3.48

**Q.** With QCIECGKSFNRHCNLIRHQKTHTV [I21T] as the variant, how does the protein stability index read?
**A.** 4.39

**Q.** Which protein stability index does the source give for QCIECGKSFNRHCNLIRHQKDHTV [I21D] here?
**A.** 3.93

**Q.** Which protein stability index does the source give for QCIECGKSFNRHCNLIRHQKQHTV [I21Q] here?
**A.** 4.49

**Q.** With QCIECGKSFNRHCNLIRHQKRHTV [I21R] as the variant, how does the protein stability index read?
**A.** 3.81

**Q.** For QCIECGKSFNRHCNLIRHQKCHTV [I21C], which protein stability index is on record?
**A.** 3.85

**Q.** For QCIECGKSFNRHCNLIRHQGIHTV [K20G], which protein stability index is on record?
**A.** 2.38

**Q.** For QCIECGKSFNRHCNLIRHQVIHTV [K20V], which protein stability index is on record?
**A.** 2.66

**Q.** With QCIECGKSFNRHCNLIRHQHIHTV [K20H] as the variant, how does the protein stability index read?
**A.** 2.9

**Q.** With QCIECGKSFNRHCNLIRHQNIHTV [K20N] as the variant, how does the protein stability index read?
**A.** 2.61

**Q.** Which protein stability index does the source give for QCIECGKSFNRHCNLIRHQSIHTV [K20S] here?
**A.** 3.3
